The results in this text go back to article PMC5796892, “Leishmania donovani Inhibitor of Serine Peptidases 2 Mediated Inhibition of Lectin Pathway and Upregulation of C5aR Signaling Promote Parasite Survival inside Host” (Frontiers in Immunology, 2018).

By Kd is commonly meant the free concentration of one partner at which half of the binding sites on the other are occupied at equilibrium, for simple one-to-one binding. Low readings indicate a tighter complex, high ones a looser complex.

Common to all, as to conditions: both partners purified
Assay [1] has as its target T1, C1 complex (C1qr2s2) (human, UniProt P02745 23-245; P02746 28-253; P02747 29-245).
T1 construct: Complement C1q, subunit A; Complement C1q, subunit B; Complement C1q, subunit C; Complement C1r, serine protease of the C1 complex; the PDB entry was used only for docking and holds a fragment; Complement C1s, serine protease of the C1 complex; Held on plates coated with human IgM; also called C1 component; source: bought: Merk-Millipore (purified C1 complex); copies: + + + 2 + 2
The assay is described as follows: ELISA; C1 complex at 50 µg/ml bound to human IgM-coated plate (37°C, 2 h); rLdISP1/rLdISP2 0-50 µM added, 37°C, 2 h; bound ISP detected with anti-ISP1 or anti-ISP2 antibody; Kd taken as the free ligand at half saturation.

For assay [2], the target named is T1, C1 complex (C1qr2s2). In words: ELISA; C1 complex at 25 µg/ml bound to human IgM-coated plate (37°C, 2 h); rLdISP1/rLdISP2 0-50 µM added, 37°C, 2 h; bound ISP detected with anti-ISP1 or anti-ISP2 antibody; Kd taken as the free ligand at half saturation. (An ELISA detects its analyte on a solid surface through an enzyme-linked reagent.)
Assay [3] deals with T1, C1 complex (C1qr2s2). The assay is described as follows: ELISA; C1 complex at 12.5 µg/ml bound to human IgM-coated plate (37°C, 2 h); rLdISP1/rLdISP2 0-50 µM added, 37°C, 2 h; bound ISP detected with anti-ISP1 or anti-ISP2 antibody; Kd taken as the free ligand at half saturation.
The target in assay [4] is T1, C1 complex (C1qr2s2). The assay is described as follows: ELISA; C1 complex at 100 µg/ml bound to human IgM-coated plate (37°C, 2 h); rLdISP1/rLdISP2 0-50 µM added, 37°C, 2 h; bound ISP detected with anti-ISP1 or anti-ISP2 antibody; Kd taken as the free ligand at half saturation.
The target in assay [5] is T1, C1 complex (C1qr2s2). In words: ELISA; C1 complex at 6.25 µg/ml bound to human IgM-coated plate (37°C, 2 h); rLdISP1/rLdISP2 0-50 µM added, 37°C, 2 h; bound ISP detected with anti-ISP1 or anti-ISP2 antibody; Kd taken as the free ligand at half saturation.

B1: recombinant Leishmania donovani inhibitor of serine peptidases 1 (natural protein)
chain: MSYCKIEAPYPTAEAGEKRIIFALDPKGDEAEQEQYMLQLIPGRVLEMSRNDAANHQTLGGSIEQHTVEGWGAKFFHVKLAKQAASTLMHVHDEDHSEKVRKFVAMPNPPLFPYRSRCPVVVYLPNDAELRYGIWCGGQQMQAVTE
In the case of B1, the Ka amounted to 450000 M⁻¹ with C1 complex (C1qr2s2) [1]; 330000 M⁻¹ in the assay with C1 complex (C1qr2s2) [2]; 280000 M⁻¹ in the assay with C1 complex (C1qr2s2) [3]; 625000 M⁻¹ with C1 complex (C1qr2s2) [4]; 260000 M⁻¹ with C1 complex (C1qr2s2) [5]. The Kd in the assay with C1 complex (C1qr2s2) [1] was found to be 2200 nM; in the assay with C1 complex (C1qr2s2) [2], 2800 nM; with C1 complex (C1qr2s2) [3] it was 3500 nM; with C1 complex (C1qr2s2) [4], 1600 nM; with C1 complex (C1qr2s2) [5], 3800 nM.
